Test results published in the supplement of paper PMC10567573.

B1: ANKRD9 (parent)
chain: LLEDMRASEAFHWDERGRAAAYSP
B2: TRAF3IP2 (parent)
chain: APWNYHYHCPGSPDHQVPYGHDYP

Variants of: B1
Test: protein stability index of a GFP-peptide fusion (GPS, HEK-293T) (PSI 1-6); higher = more stable
Conditions: c terminus: a fixed tail appended
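Also: lentivirally expressed fusions sorted by FACS into six bins by GFP to DsRed ratio, PSI derived from sequencing read proportions per bin multiplied by bin number.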

Protein stability index of substitutions, site by site:
S23: H 1.98; D 2.09; Q 3.31; L 2.1; A 2.09; G 1.68; E 1.85; V 2.08; T 2.08; K 2.05; R 1.91; P 1.4; F 1.35; N 1.16; M 2.68; Y 1.74; I 2.61
F11: A 2.71; S 2.91; E 1.74; K 3.72; T 2.5; M 2.28; I 1.78; H 2.66; N 2.84; Q 2.32; G 3.23; L 1.98; D 3.58; P 2.5; R 2.87; Y 2.03
Y22: L 1.81; M 1.64; A 3.01; K 2.18; H 1.76; C 1.8; E 2.62; D 2.2; G 1.63; I 2.17; Q 2.39; T 4.08; S 2; R 1.81
G17: W 1.1; R 2.06; C 2.39; T 1.42; E 2.31; K 1.78; H 1.44; N 2.52; F 2.59; V 3.02
E9: P 2.8; S 3; A 3.12; F 2.32; W 1.32; V 2.19; T 2.96; K 3.29; R 2.77; H 3.31; D 2.99; I 1.79; L 1.89; M 2.46; Y 2.48; Q 4.46; G 2.06
D14: L 2.09; I 1.77; Y 1.98; R 2.29; H 2.13; N 2.11; V 1.35; W 2.41; P 1.6; M 2.33; T 2.57; K 1.41; F 1.36; Q 1.58
H12: P 1.95; M 1.68; V 1.34; A 3.33; C 3.35; R 2.2; D 2.1; G 2.49; I 2.61; L 2.68; F 2.29; E 1.83; T 2.21; K 2.5
M5: V 3.77; N 4.1; T 4.12; F 3.94; I 2.89; S 3.3; W 3.64; P 4.09; L 1.6; Y 3.83; K 3.97; G 3.94; E 4.66; H 3.39; Q 3.91; A 3.92
P24: N 2.41; R 1.75; S 3.62; V 1.68; H 2.19; A 2.1; Q 1.58; K 1.53; T 2.34; Y 1.6; F 1.23; E 2.48; D 1.75; L 1.38
A10: R 1.86; D 1.23; M 1.94; W 1.94; T 2.44; H 2.7; V 1.5; S 1.85; K 1.97; E 1.81; P 3.58; F 2.1; L 2.82; G 2.46; N 1.54; C 1.39
R16: K 1.32; N 1.93; C 1.56; W 1.58; S 1.44; Q 1.9; E 1.93; M 1.32; F 1.86; V 1.79; L 2.41; A 2.24; T 1.74; G 1.88; I 3.12; H 2.44
A7: C 1.8; L 2.19; D 2.51; H 3.62; E 1.27; I 1.96; P 4.21; Q 1.8; F 2.64; V 2.35; S 1.78; K 1.52; Y 1.8; M 2.34; W 2.3; T 2.15; R 1.76; G 3.01
E15: M 1.32; K 1.8; H 2.68; A 1.31; R 1.58; I 2.83; G 1.7; L 1.5; C 2.68; D 1.56; Q 1.94; F 2.95; T 1.91; P 1.88; V 1.52; S 1.64; Y 1.81
R18: A 2.65; S 1.88; V 2.36; F 2.22; L 2.24; M 2.34; Q 1; Y 1.71; T 1.7; N 2.14; C 1.69; H 2.66; P 1.56; E 1.96; I 1.65; K 1.8; G 2.12; D 1.91
R6: A 3.56; K 2.85; W 1.87; I 2.32; T 2.5; Y 2.43; D 4.03; E 3.96; C 3.6; M 2.17; L 1.1; V 2.43; P 3.27; S 2.9; F 2.79; N 2.97; H 2.95
D4: T 2.62; S 2.23; W 1.52; V 2.19; Y 1.9
W13: G 2.61; F 2.05; V 2.05; I 1.87; E 2.06; C 2.53; P 2.74; L 2.41; N 2.2; D 2.24; A 2.16; R 2.94; H 2.66; K 2.93; Y 1.39; M 1.84
A21: D 2.06; E 2.53; F 2.55; T 1.43; C 2.15; H 1.45; N 2.15; S 1.62; Y 2.08; K 1.95; Q 2.29; P 1.86; V 3.25; G 1.33; M 1.96; R 2.23; L 1.87; W 1.42; I 1.71
A19: V 1.99; N 1.84; D 1.36; T 1.88; K 2.27; I 1.03; Q 1.22; Y 1.28; L 2.39; S 2.23; H 1.69; F 1.54; P 2.31; E 1.55; W 1.53; C 2.26; R 1.84
S8: A 3.3; T 1.82; I 1.95; N 4.13; C 2.5; D 3.89; V 2.82; R 2.88; M 3.04; H 3.13; L 2.73; G 2.19; F 3.31; P 3.3; K 3.96; W 3.13; Y 2.7; Q 3.91
A20: S 1.62; T 2.36; Y 1.85; E 1.92; R 1.1; C 1.46; L 2.27; I 1.97; D 2.64; M 2.55; F 1.81; V 1.34; H 2.13; P 1.92; Q 1.48; K 1.62

Variants of: B2
Test: as above
Conditions: c terminus: a fixed tail appended

Protein stability index: each site, then its substitutions
Q16: V 2.09; I 2.58
P18: K 3.59
H15: F 1.65
G11: S 2.12
A1: N 2.32
H8: S 2.44
Y19: P 2.51
V17: R 2.4
